According to US20210340516A1, “COMPOSITIONS CONTAINING ARGINASE 1 FOR THE TREATMENT OF NEUROVASCULAR AND RETINAL VASCULAR DISORDERS” (Augusta University Research Institute, Inc., priority 2020, published 2021):

Tests used:
[1] = tested on: OIR retinas (TNFα, IL-6, MCP1, iNOS, A1, FGF2, CNTF, IL-10 mRNA); test: OIR mouse model: qPCR of retinal inflammation markers and growth factors; assay type: in vivo
Protocol: PBS was used as vehicle control. Pups were anesthetized before treatment by intraperitoneal (i.p.) injection of ketamine/xylazine mixture. Intravitreal injections were performed using a 36-gauge NanoFil needle mounted to a 10-μL Hamilton syringe (World Precision Instruments). Two treatment strategies were employed. […] The P9 time point was selected based on the fact that vaso-obliteration occurs within the first 48 hours of hyperoxia treatment (Connor, et al., Nature Protocols, 4:1565-1573 (2009); Lange, et al., Graefe's archive for clinical and experimental ophthalmology, 247:1205-1211 (2009); Gu, et al., Investigative ophthalmology & visual science, 43:496-502 (2002)).
However, variability was relatively high in the OIR retinas and this protective effect was statistically significant only for TNFα.

[2] = Optic nerve crush (ONC) model: PEG-A1 penetration (Western blot, flat-mount immunolabeling); assay type: in vivo, mouse; conditions: Western blot at 24 hours, flat-mount immunolabeling at 7 days
Protocol: Mouse retinal ischemia-reperfusion (IR) injury and traumatic optic neuropathy (TON) models: All experiments were performed in accordance with the ARVO Statement for the Use of Animals in Ophthalmic and Vision Research and were approved by the institutional animal care and use committee (Animal Welfare Assurance no. D16-00197). Wild-type (WT) C57BL/6J mice (10-12 weeks old) were anesthetized using ketamine/xylazine mixture then subjected to retinal ischemia-reperfusion (IR) injury or optic nerve crush (ONC) to model traumatic optic neuropathy (TON) as described in Shosha, et al., Cell death & disease, 7:e2483-e (2016) and Xu, et al., Frontiers in Neuroscience, 12:970 (2018). Mice were sacrificed at 24 hours or 7 days after by deep anesthesia followed by trans-cardial perfusion with PBS or thoracotomy and eyeballs were collected and fixed in 4% PFA for immunolabeling or retinas were extracted without fixation and homogenized in Radioimmunoprecipitation Assay (RIPA) lysis buffer for Western blotting.
Western blotting: Western blotting on retina or brain was conducted as described in Fouda, A Y, et al., Cell death & Disease, 9:1001 (2018). Membranes were probed with anti-PEG (RevMAb Biosciences, 1:1000) and anti-albumin (Bethyl Laboratories, 1:5000). Uncropped blots are included in FIG. 22. […]

[3] = tested on: retinal explants; test: Ex vivo retinal explants subjected to OGD/R, NeuN flat-mount staining; assay type: cell-based, mouse; conditions: 3 hours OGD/21 hours reoxygenation, treated at reoxygenation; untreated 55%, PEG only 48%
From the text: Evaluation of retinal neurodegeneration: Retina flat-mounts and explants were immunolabeled for the neuronal marker, NeuN (Millipore), as previously described in Shosha, et al., Cell death & disease, 7:e2483-e (2016). Images were collected and analyzed in a blinded fashion using a semi-automated method. Four images per retina flat-mount were taken as Z-stacks in the mid-periphery of each retina petal using an inverted confocal microscope (LSM 780; Carl Zeiss). Three images were taken per explant. NeuN-positive cells were quantified using ImageJ software ‘Batch processing’ function. A prerecorded ImageJ macro code (FIG. 23A-23C) was used for batch processing. The macro was validated every time it was used to make sure it is compatible with the set of images being analyzed. Results from three to four images were averaged to represent neuron density for each retina. Results are presented as % of sham retina or control explant under normoxic conditions. […]
The retinal IR model was mimicked by subjecting retinal explants to oxygen-glucose deprivation/reperfusion (OGD/R) ex vivo (FIG. 19A). An OGD time-response experiment established 3 hours of OGD/21 hours of reoxygenation to be optimal for studying retinal neurodegeneration ex vivo with about 60% neuronal survival as measured by NeuN flat-mount staining (FIG. 19B-19E, 19F).

[4] = OIR retinas, P13 or P17, not statistically significant
[5] = OIR retinas, did not reach statistical significance

B1: PEG-A1: recombinant human arginase (rhArg) covalently attached to methoxy polyethylene glycol (mPEG-SPA; MW 5,000) via succinamide propionic acid (SPA) linker (protein, UniProt P05089 1-322, looked up)
Arginase-1: MSAKSRTIGIIGAPFSKGQPRGGVEEGPTVLRKAGLLEKLKEQECDVKDYGDLPFADIPNDSPFQIVKNPRSVGKASEQLAGKVAEVKKNGRISLVLGGDHSLAIGSISGHARVHPDLGVIWVDAHTDINTPLTTTSGNLHGQPVSFLLKELKGKIPDVPGFSWVTPCISAKDIVYIGLRDVDPGEHYILKTLGIKYFSMTEVDRLGIGKVMEETLSYLLGRKKRPIHLSFDVDGLDPSFTPATGTPVVGGLTYREGLYITEEIYKTGLLSGLDIMEVNPSLGKTPEEVTRTVNTAVAITLACFGLAREGNHKPIDYLNPPK
modifications: mPEG-SPA 5 kDa conjugate
notes: recombinant human arginase (rhArg) covalently attached to methoxy polyethylene glycol (mPEG-SPA; MW 5,000) via succinamide propionic acid (SPA) linker
iNOS mRNA levels ([1]; OIR WT retinas): significantly reduced
A1 mRNA ([1]; OIR retinas): mRNA upregulation
FGF2 mRNA ([1]; OIR retinas): mRNA upregulation
IL-6 expression (qPCR) [1, 4]: reduced the expression
MCP1 expression (qPCR) [1, 4]: reduced the expression
TNFα expression (qPCR) ([1]; OIR retinas, P13 or P17, statistically significant): reduced the expression
CNTF mRNA [1, 5]: mRNA upregulation
IL-10 mRNA [1, 5]: mRNA upregulation
penetration into brain or sham contralateral retina/optic nerve after ONC [2]: not into the brain or sham contralateral retina/optic nerve
penetration into retina/optic nerve tissue after ONC [2]: effective penetration
neuronal survival of retina explants (NeuN) [3]: 73%
